Tests used:
[1] = biological target: T1, human CEACAM5-Fc (human, UniProt P06731 35-685, limits assumed); experiment: solid phase ELISA, CEACAM-Fc coated, mAb 5 µg/ml (FIG. 19)
T1 construct: also called recombinant CEACAM-Fc protein; not shown: human IgG Fc
T1 sequence (looked up): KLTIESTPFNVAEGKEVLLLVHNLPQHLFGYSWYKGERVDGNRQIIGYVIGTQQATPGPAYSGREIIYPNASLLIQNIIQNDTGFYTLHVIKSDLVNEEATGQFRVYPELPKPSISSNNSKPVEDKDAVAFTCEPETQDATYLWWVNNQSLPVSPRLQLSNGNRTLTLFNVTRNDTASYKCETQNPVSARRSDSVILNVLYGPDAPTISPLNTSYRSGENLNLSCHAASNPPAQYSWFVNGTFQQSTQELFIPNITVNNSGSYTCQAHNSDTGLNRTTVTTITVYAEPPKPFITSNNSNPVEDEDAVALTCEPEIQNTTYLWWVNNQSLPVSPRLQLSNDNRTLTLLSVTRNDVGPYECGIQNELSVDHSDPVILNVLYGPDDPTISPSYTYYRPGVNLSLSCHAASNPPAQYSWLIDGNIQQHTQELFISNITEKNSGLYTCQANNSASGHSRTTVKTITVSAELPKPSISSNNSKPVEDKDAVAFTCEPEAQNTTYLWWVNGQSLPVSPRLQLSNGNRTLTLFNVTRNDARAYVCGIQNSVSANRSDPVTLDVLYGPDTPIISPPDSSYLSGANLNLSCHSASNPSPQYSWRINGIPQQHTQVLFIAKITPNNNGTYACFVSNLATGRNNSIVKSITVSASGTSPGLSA

[2] = biological target: T2, human CEACAM3-Fc (human, UniProt P40198 35-155, limits assumed); experiment: as above
T2 construct: also called recombinant CEACAM-Fc protein; not shown: human IgG Fc
T2 sequence (looked up): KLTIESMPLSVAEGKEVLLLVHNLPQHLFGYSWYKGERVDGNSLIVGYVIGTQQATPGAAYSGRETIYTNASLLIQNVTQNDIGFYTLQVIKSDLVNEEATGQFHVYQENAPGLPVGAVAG

[3] = biological target: T3, human CEACAM1-Fc fusion protein (human, UniProt P13688 35-428); experiment: as above
T3 construct: Said to comprise the entire extracellular domain of human CEACAM1; also called CEACAM1-huFc; recombinant CEACAM1-Fc; not shown: human IgG Fc (huFc)
T3 sequence: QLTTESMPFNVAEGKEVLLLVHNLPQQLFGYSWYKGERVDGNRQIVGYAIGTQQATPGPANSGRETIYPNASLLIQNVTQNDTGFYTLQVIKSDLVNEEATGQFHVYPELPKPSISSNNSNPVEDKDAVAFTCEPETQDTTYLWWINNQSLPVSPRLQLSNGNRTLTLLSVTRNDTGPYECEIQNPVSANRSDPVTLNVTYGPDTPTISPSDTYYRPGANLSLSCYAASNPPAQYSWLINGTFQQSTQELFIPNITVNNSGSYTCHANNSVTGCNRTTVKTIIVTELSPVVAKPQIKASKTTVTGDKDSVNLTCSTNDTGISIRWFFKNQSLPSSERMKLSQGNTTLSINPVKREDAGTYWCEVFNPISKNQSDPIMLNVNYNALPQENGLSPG

[4] = biological target: T4, human CEACAM1 (human, UniProt P13688 35-526); experiment: flow cytometry on CHO transfectants
T4 construct: Expressed on CHO transfectants; also called huCEACAM1; CHO-CEACAM1
T4 sequence: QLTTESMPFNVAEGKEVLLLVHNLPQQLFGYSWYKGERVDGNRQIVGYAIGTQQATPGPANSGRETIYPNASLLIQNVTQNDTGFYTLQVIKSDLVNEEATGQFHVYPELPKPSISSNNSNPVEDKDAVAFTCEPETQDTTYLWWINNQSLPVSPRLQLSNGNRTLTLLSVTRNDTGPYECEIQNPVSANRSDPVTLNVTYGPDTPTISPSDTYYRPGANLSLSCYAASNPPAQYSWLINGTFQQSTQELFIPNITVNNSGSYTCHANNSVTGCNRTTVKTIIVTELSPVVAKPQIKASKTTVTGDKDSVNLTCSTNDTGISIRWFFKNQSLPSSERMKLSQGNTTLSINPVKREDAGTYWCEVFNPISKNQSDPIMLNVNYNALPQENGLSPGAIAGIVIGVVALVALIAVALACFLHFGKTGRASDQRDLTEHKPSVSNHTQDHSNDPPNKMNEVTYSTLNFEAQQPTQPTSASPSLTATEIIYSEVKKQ
Description: (§1) After washing, FITC-labeled secondary goat anti mouse antibody was applied. Cell surface binding was analyzed utilizing a FACScalibur flow cytometer (Becton Dickinson).

[5] = biological target: T5, human CEACAM3 (human, UniProt P40198 35-252); experiment: flow cytometry on CHO transfectants
T5 construct: whole, on cells; also called huCEACAM3; CHO transfectants expressing human CEACAM3
T5 sequence (looked up): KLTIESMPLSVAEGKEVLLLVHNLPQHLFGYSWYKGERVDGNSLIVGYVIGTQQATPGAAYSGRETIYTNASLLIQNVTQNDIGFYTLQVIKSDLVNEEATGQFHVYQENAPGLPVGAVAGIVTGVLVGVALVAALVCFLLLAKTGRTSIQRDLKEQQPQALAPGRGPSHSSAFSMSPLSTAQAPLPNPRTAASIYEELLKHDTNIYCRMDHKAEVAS
Description: as §1

[6] = biological target: T6, peptide P-Q-Q-L-F-G-Y-S-W-Y (human); experiment: solid phase peptide ELISA, mAb 5 µg/ml (FIG. 20)
T6 construct: coated on the ELISA plate
T6 peptide: PQQLFGYSWY
Description: After three times washing with PBS, samples were incubated with goat anti mouse-HRP (Jackson ImmunoResearch, 1:10.000 dilution in 1% BSA/PBS, 100 µl/well). Then plates were washed three times with PBS, developed with 100 µl TMB substrate, blocked with 100 µl 0.2 M H2SO4 and measured by the TECAN-ELISA reader sunrise at 450 nm. Samples were run in triplicates. Results shown are representative for three independent repeats.

[7] = biological target: T7, human CEACAM6-Fc (human, UniProt P40199 35-320, limits assumed); experiment: sandwich ELISA, CC1/3/5-Sab coated, CEACAM-Fc proteins in solution
T7 construct: also called recombinant CEACAM-Fc protein; not shown: human IgG Fc
T7 sequence (looked up): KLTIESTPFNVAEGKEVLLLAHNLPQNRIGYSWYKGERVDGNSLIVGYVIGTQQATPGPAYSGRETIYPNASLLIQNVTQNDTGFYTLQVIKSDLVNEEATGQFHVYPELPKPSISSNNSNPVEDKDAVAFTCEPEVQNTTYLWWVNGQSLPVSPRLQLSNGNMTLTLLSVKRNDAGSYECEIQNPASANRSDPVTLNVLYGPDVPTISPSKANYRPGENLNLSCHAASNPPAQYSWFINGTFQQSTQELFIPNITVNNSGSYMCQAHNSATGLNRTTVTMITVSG

[8] = biological target: T8, human CEACAM8-Fc (human, UniProt P31997 35-320, limits assumed); experiment: as above
T8 construct: also called recombinant CEACAM-Fc protein; not shown: human IgG Fc
T8 sequence (looked up): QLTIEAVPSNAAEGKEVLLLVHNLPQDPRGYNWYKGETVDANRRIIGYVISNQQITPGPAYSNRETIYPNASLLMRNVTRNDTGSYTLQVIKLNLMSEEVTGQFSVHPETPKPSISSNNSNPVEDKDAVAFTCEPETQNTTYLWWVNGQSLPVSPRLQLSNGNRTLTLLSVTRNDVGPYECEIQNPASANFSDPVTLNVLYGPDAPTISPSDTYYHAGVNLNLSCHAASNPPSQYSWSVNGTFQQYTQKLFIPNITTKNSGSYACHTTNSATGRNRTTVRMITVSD

[9] = biological target: T9, CEACAM1-dN-Fc (human, UniProt P13688 143-428, limits assumed); experiment: solid phase ELISA, CEACAM-Fc coated (FIG. 19)
T9 construct: Human CEACAM1 extracellular part without the N domain, fused to Fc; also called CEACAM1 variant lacking the N domain; not shown: human IgG Fc

B1: CC1/3/5-Sab (antibody, V domains shown)
VH: EVQLQQSGPELVKPGTSVKMSCKASGYTFTTYVMHWVQQKPGQGLDWIGFFNPYNDGTKYNEKFKGKATLTSDKSSSTAYMELSSLTSEDSAVYYCARWAYDGSYAYWGQGTTLTVSS
VL: DIQMTQSSSYLSVFLGGRVTITCKASDHINNWLAWYQQKPGNAPRLLISGATSLETGVPSRFSGSGSGKDYTLSIISLQTEDVATYYCQQYWRTPFTFGSGTKLEIK
notes: also called mAb CC1/3/5-Sab; CC1/3/4-Sab
binding result [1]: binds | binding result [2]: binds | binding result [3]: binds | binding result [4]: binds | binding result [5]: binds | binding result [6]: binds | binding result [7]: no binding (tested: 0.1 µg/ml CEACAM-Fc) | binding result [8]: no binding (tested: 0.1 µg/ml CEACAM-Fc) | binding result [9]: no binding (tested: 5 µg/ml)
